Target: T1, complex of detergent-solubilized, biotinylated NTCP and BLV (Homo sapiens NTCP; bulevirtide from …)
T1 construct: also called NTCP-BLV complex; source: BLV: provided peptide; not shown: Avi-tag, C-terminal, kept; eYFP, C-terminal, cleaved; rho-1D4, C-terminal, cleaved
Assay: ELISA; multipoint ELISA at 4 C; 40 nM biotinylated NTCP immobilised on a neutravidin-coated plate in the presence of BLV, serial dilutions of purified Fab for 20 min, detection with HRP-conjugated protein L; EC50 from a sigmoidal dose-response fit; apparent
Details: both partners purified

B1: Fab3 (Fab, V domains shown)
VH: EVQLVESGGGLVQPGGSLRLSCAASGFNVSSSYIHWVRQAPGKGLEWVASISPYYSYTSYADSVKGRFTISADTSKNTAYLQMNSLRAEDTAVYYCARYQYDYYYSYYAGLDYWGQGTLVTVSS
VL: DIQMTQSPSSLSASVGDRVTITCRASQSVSSAVAWYQQKPGKAPKLLIYSASSLYSGVPSRFSGSRSGTDFTLTISSLQPEDFATYYCQQYRYSLITFGQGTKVEIK
notes: also called Fab specific to the NTCP-BLV complex
  Kd: 8 nM
